# Experimental data as given in patent US20170246212A1, “METHODS TO UPREGULATE AND SUPPRESS AN EXPRESSION OF IMMUNOMODULATORY CELLS” (National Health Research Institutes, priority 2014, published 2017).
# B1: rhIL-25: Human recombinant IL-25 (PeproTech); IL-25 also known as IL17E (protein, UniProt Q9H293 33-177, looked up)
# Interleukin-25: YSHWPSCCPSKGQDTSEELLRWSTVPVPPLEPARPNRHPESCRASEDGPLNSRAISPWRYELDRDLNRLPQDLYHARCLCPHCVSLQTGSHMDPRGNSELLYHNQTVFYRRPCHGEKGTHKGYCLERRLYRVSLACVCVRPRVMG
# How the values were obtained:
# [1] = tested on: PD-L1 surface expression on monocytes; test: PD-L1 surface expression on human monocytes from PBLs, flow cytometry; type: cell-based; details: for IL-25-mediated induction of PD-L1 in human primary monocytes: inhibitor pretreatment (WP1066 2.5 μM; SP600125 25 μM; PD98059 20 μM; LY294002 10 μM; Akt inhibitor III 10 μM), then 100 ng/ml rhIL-25 for 18 hours
# Procedure: FIG. 9. IL-25-mediated PD-L1 expression in human monocytes and hMSCs is mediated through JNK and STAT3 with STAT3 involved in transcriptional control of PD-L1. (A) Human PBLs were pretreated with inhibitors of STAT3 (WP1066; 2.5 μM), JNK (SP600125; 25 μM), or MEK1 (PD98059; 20 μM) prior to 100 ng/ml rhIL-25 for 18 hours, with subsequent flow cytometric analysis for PD-L1 surface expression on monocytes, gated using FSC and SSC. Filled histograms represent isotype control. Unfilled histograms represent PD-L1 antibody staining. Pooled data (3 donors) provided in (B) with bars representing MFI. hMSCs were treated with inhibitors of (C) STAT3 (WP1066; 2.5 μM) and (D) JNK (SP600125; 25 μM) for 6 hours, and subsequently assessed by flow cytometric analysis for PD-L1 surface expression. Pooled data (all 3 donors) for each respective inhibitor provided (left charts) with bars representing MFI. (D) Putative GAS elements (STAT-binding sites) in the proximal promoter region of human PD-L1 gene; 700 bp region upstream from the transcription start site), as determined with TFSearch web-based software. (E) Binding of STAT3 or IgG (negative control) in hMSCs was analyzed by chromatin immunoprecipitation (ChIP) with promoter-specific primers for region 1 and region 2. The input samples (positive control) represent 1% starting chromatin. (F) Schematic of model of hMSC-mediated suppression of Th17 responses involving IL-25/STAT3/PD-L1 axis.
# FIG. 10. Involvement of signal pathways for IL-25-induced expression of PD-L1 in human peripheral blood monocytes. (A) Pooled data (3 donors) of PD-L1 expression (shown as MFI) after MEK inhibition. (B) Human peripheral blood monocytes were pretreated with inhibitors of PI3K (LY294002; 10 μM) or Akt (Akt inhibitor III; 10 μM), followed by 100 ng/ml IL-25 stimulation. After IL-25 treatment for 18 hours, the expression of PD-L1 was assessed by cell surface staining. Pooled data (3 donors) provided in (C) of PD-L1 expression (shown as MFI). A.U., arbitrary units. […]
# [2] = tested on: PD-L1 surface expression on hMSCs; test: PD-L1 surface expression on hMSCs, flow cytometry; type: cell-based, human
# Procedure: FIG. 7. IL-25 induces PD-L1 surface expression on hMSCs and human monocytes. (A) PD-L1 in siCtrl MSCs (left panel) and siPD-L1 MSCs (right panel) was analyzed by surface staining. (B) Freshly isolated human PBLs were co-cultured without (left panels) or with siCtrl MSCs (middle panels) or siPD-L1 MSCs (right panels) for 3 days, followed by PMA/ionomycin stimulation for 6 hours. IL-17A production in CD3^+ T cells was assessed by intracellular staining. Representative data shown with numbers in the top right quadrants representing the percentages of IL-17A-producing CD3^+ T cells. Pooled data from PBLs (n=4) and 2 hMSC donors (donors A & B) are provided in (C). Folds of reversed phenotypes of silL-25 and siPD-L1 are provided in (D). (E) PD-L1 expression on siCtrl hMSCs (left panel) and silL-25 hMSCs (right panel) was assessed by cell surface staining Filled histograms represent isotype control. […] Pooled data provided in (F) of PD-L1 expression (indicated by fold-change in mean fluorescence intensity; MFI) on silL-25-hMSCs and siPD-L1-hMSCs (all 3 donors). […] (G) hMSCs were treated with indicated doses of rhIL-25 for 18 hours and assessed for cell surface PD-L1 expression by cell surface staining. […] (H) Human PBLs were treated with indicated doses of rhIL-25 for 18 hours, and assessed for cell surface PD-L1 expression on monocytes, gated using FSC and SSC, by flow cytometric analysis. […]
# [3] = tested on: IL-17A production in CD3+ T cells; test: IL-17A production in CD4 T cells treated with rhIL-25, intracellular staining; type: cell-based, human; details: rhIL-25 alone for 18 hours, then PMA/ionomycin 6 hours
# Procedure: FIG. 6. […] (A) Human CD4 T cells were treated with indicated doses of recombinant human IL-25 (rhIL-25) for 18 hours, followed by PMA/ionomycin stimulation for 6 hours. IL-17A production in CD3^+ T cells was assessed by intracellular staining. Numbers in the top right quadrants represent the percentages of IL-17A-producing CD3^+ T cells; (B) pooled data of 5 PBL donors. (C) Human CD4 T cells (n=4) were co-cultured without or with hMSCs (2 donors: B & C) in the absence or presence of transwell barriers. Pooled data from healthy donors are provided in (D). Data are shown as means±SD. **, p<0.01; n.s., not significant. […]
# Cells were stained with antibodies as indicated: anti-human IL-25-PE (R&D Systems), mouse IgG1 isotype control-PE (R&D Systems), anti-human CD3-PE/Cy5 (BioLegend), anti-human CD4-PE (BioLegend), anti-human IL-17A-PE (eBioscience), anti-human IFN-γ-FITC (BioLegend), anti-human IL-22-PE (eBioscience), anti-human FOXP3-Alexa Fluor 488 (BD Pharmingen), anti-human CD274 […]-PE (eBioscience), mouse IgG1 isotype control-PE (eBioscience), anti-human IL-25R-PE (R&D Systems), and mouse IgG2b isotype control-PE (R&D Systems), anti-mouse CD4-APC (eBioscience), anti-mouse CD3e-PE/Cy5 (eBioscience), and anti-mouse/rat IL-17A-PE (eBioscience). Data was collected on BD FACSCalibur™ (BD Biosciences) instruments and analyzed with Cell Quest Pro software (BD Biosciences).
# [4] = tested on: myeloid-derived suppressor cells (MDSCs) in peripheral blood leukocytes; test: Expansion of CD14-CD11b+CD33+ MDSCs from human PBLs by IL-25; type: cell-based; details: allogeneic PBL (2 donors), various doses of IL-25
# Procedure: FIG. 11. IL-25 expands […] myeloid-derived suppressor cells (MDSCs) in peripheral blood leukocytes (PBLs). Expansion of CD14^−CD11b^+CD33^+ cells from human PBLs by recombinant human IL-25. Allogeneic PBL (2 donors) were cultured alone or with addition of various doses of IL-25 as indicated. PBL were first gated on forward scatter (FSC)/side scatter (SSC) (R1) then analyzed for CD14^− and CD11b^+ (R2), and further analyzed for CD33^+ (R3, cell percentages denoted).
# To further confirm that IL-25 can induce expansion of MDSCs from peripheral blood, Allogeneic PBL (2 donors) were cultured alone or with addition of various doses of IL-25 as indicated (FIG. 11). The treated cells were first gated on forward scatter (FSC)/side scatter (SSC) (R1) then analyzed for CD14^− and CD11b^+ (R2), and further analyzed for CD33^+ (R3, cell percentages denoted).
Molecule,IL-25-mediated induction of PD-L1 in human primary monocytes [1],PD-L1 expression in hMSCs ([2]; inhibitor for 6 hours (WP1066 2.5 μM; SP600125 25 μM)),suppression of Th17 responses (IL-17A in CD4 T cells) [3],"PD-L1 expression in monocytes ([1]; human PBLs treated with rhIL-25, indicated doses, 18 hours, dose-dependent)",expansion of MDSCs in PBLs [4],"surface expression of PD-L1 on hMSCs ([2]; exogenous rhIL-25, indicated doses, 18 hours)"
COc1cccc(-c2cc(=O)c3ccccc3o2)c1N [PD98059],minimal effect,–,–,–,–,–
"C[C@H](NC(=O)/C(C#N)=C/c1cccc(Br)n1)c1ccccc1 [WP1066, reference compound]",substantially abolished,strongly reduced,–,–,–,–
B1,–,–,failed to suppress Th17 responses to a significant extent,dramatically and significantly increased,expands,further upregulate surface expression of PD-L1 on hMSCs but not to a significant extent
